Test results as given in article PMC5762634, “Domain swapping and SMYD1 interactions with the PWWP domain of human hepatoma-derived growth factor” (Scientific Reports, 2018).

Target: the molecule itself
Assay: SEC; Superdex-200; apo PWWP domain at higher initial concentration (proportion of dimer rises with concentration); 20 mM Tris-HCl, 5 mM EDTA, 5 mM beta-ME, pH 7.5

B1: human HDGF PWWP domain (residues 1-100) (domain or fragment)
chain: not shown
notes: human hepatoma-derived growth factor (HDGF), N-terminal PWWP domain, the first 100 amino acids; Subcloned into the NdeI and EcoRI sites of pET28a; also called apo PWWP domain; HDGF PWWP_(1-100) domain; source: E. coli BL21-Codon Plus-RIL, purified (Ni2+-NTA, Hitrap Q, Superdex-200)
  stoichiometry N: 2
